Source: patent US20240262919A1 (SHANGHAITECH UNIVERSITY, published 2024)
Where a chain is given by its changes, count along the chain named.

B1: IgG 3131 (antibody, V domains shown)
VH: EVQLVESGGGLVQPGGSLRLSCAASGFNLYYSSMHWVRQAPGKGLEWVASIYSSYGYTYYADSVKGRFTISADTSKNTAYLQMNSLRAEDTAVYYCARSSFSHGYGWYGLDYWGQGTLVTVSS
VL: DIQMTQSPSSLSASVGDRVTITCRASQSVSSAVAWYQQKPGKAPKLLIYSASSLYSGVPSRFSGSRSGTDFTLTISSLQPEDFATYYCQQYGYHYAGLITFGQGTKVEIKR
notes: IgG made by sub-cloning the Fab CDR regions into IgG expression constructs; VL-CL with FLAG tag; also called I3131
B2: Fab 12 (Fab)
heavy: EVQLVESGGGLVQPGGSLRLSCAASGFNISSSSIHWVRQAPGKGLEWVASISPSYSSTYYADSVKGRFTISADTSKNTAYLQMNSLRAEDTAVYYCARGAFDYWGQGTLVTVSSASTKGPSVFPLAPSSKSTSGGTAALGCLVKDYFPEPVTVSWNSGALTSGVHTFPAVLQSSGLYSLSSVVTVPSSSLGTQTYICNVNHKPSNTKVDKKVEPKSCDKTHT
light: DIQMTQSPSSLSASVGDRVTITCRASQSVSSAVAWYQQKPGKAPKLLIYSASSLYSGVPSRFSGSRSGTDFTLTISSLQPEDFATYYCQQYWHPFTFGQGTKVEIKRTVAAPSVFIFPPSDSQLKSGTASVVCLLNNFYPREAKVQWKVDNALQSGNSQESVTEQDSKDSTYSLSSTLTLSKADYEKHKVYACEVTHQGLSSPVTKSFNRGECGGSDYKDDDDK
notes: Anti-IL-18Rα Fab; also called F12
B3: Fab 3131 (Fab)
heavy: EVQLVESGGGLVQPGGSLRLSCAASGFNLYYSSMHWVRQAPGKGLEWVASIYSSYGYTYYADSVKGRFTISADTSKNTAYLQMNSLRAEDTAVYYCARSSFSHGYGWYGLDYWGQGTLVTVSSASTKGPSVFPLAPSSKSTSGGTAALGCLVKDYFPEPVTVSWNSGALTSGVHTFPAVLQSSGLYSLSSVVTVPSSSLGTQTYICNVNHKPSNTKVDKKVEPKSCDKTHT
light: DIQMTQSPSSLSASVGDRVTITCRASQSVSSAVAWYQQKPGKAPKLLIYSASSLYSGVPSRFSGSRSGTDFTLTISSLQPEDFATYYCQQYGYHYAGLITFGQGTKVEIKRTVAAPSVFIFPPSDSQLKSGTASVVCLLNNFYPREAKVQWKVDNALQSGNSQESVTEQDSKDSTYSLSSTLTLSKADYEKHKVYACEVTHQGLSSPVTKSFNRGECGGSDYKDDDDK
notes: also called F3131
B4: Fab 3132 (Fab)
heavy: EVQLVESGGGLVQPGGSLRLSCAASGFNISYYYIHWVRQAPGKGLEWVASIYSYSGYTSYADSVKGRFTISADTSKNTAYLQMNSLRAEDTAVYYCARASAMDYWGQGTLVTVSSASTKGPSVFPLAPSSKSTSGGTAALGCLVKDYFPEPVTVSWNSGALTSGVHTFPAVLQSSGLYSLSSVVTVPSSSLGTQTYICNVNHKPSNTKVDKKVEPKSCDKTHT
light: B3 light with Y91H, G92W, Y93W, H94A, Y95S, A96V, G97P, L98P, I99F
notes: also called F3132
B5: Fab 3144 (Fab)
heavy: B4 heavy with I29L, Y33S, A99S
light: DIQMTQSPSSLSASVGDRVTITCRASQSVSSAVAWYQQKPGKAPKLLIYSASSLYSGVPSRFSGSRSGTDFTLTISSLQPEDFATYYCQQHWWGYPLITFGQGTKVEIKRTVAAPSVFIFPPSDSQLKSGTASVVCLLNNFYPREAKVQWKVDNALQSGNSQESVTEQDSKDSTYSLSSTLTLSKADYEKHKVYACEVTHQGLSSPVTKSFNRGECGGSDYKDDDDK
notes: also called F3144

What was measured:
Rhesus IL-18Rβ [1] = target: T1, Rhesus IL-18Rβ (rhesus, UniProt F7HHC1 20-356); test: SPR
T1 construct: also called rhesus IL-18 receptor beta; monkey IL-18Rβ
T1 sequence: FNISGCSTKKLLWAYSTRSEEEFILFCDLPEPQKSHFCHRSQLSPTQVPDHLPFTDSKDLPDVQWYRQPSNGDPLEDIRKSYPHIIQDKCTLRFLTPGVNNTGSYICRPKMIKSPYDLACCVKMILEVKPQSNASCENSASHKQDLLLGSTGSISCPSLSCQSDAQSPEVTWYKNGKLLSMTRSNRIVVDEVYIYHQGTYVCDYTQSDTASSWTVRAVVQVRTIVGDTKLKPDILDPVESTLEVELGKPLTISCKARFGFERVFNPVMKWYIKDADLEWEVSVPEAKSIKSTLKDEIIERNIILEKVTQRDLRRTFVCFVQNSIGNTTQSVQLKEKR

Rhesus IL-18Rβ [2] = target: T1, Rhesus IL-18Rβ; test: multipoint direct binding ELISA
[3] = target: T2, human IL-18Rα ECD Fc fusion (816-LR-100; R&D Systems) (human, UniProt Q13478 22-329); test: SPR, Fab on human receptor
T2 construct: extracellular domain; Bought protein; also called Human receptor; not shown: Fc tag of the bought fusion protein, not described
T2 sequence (looked up): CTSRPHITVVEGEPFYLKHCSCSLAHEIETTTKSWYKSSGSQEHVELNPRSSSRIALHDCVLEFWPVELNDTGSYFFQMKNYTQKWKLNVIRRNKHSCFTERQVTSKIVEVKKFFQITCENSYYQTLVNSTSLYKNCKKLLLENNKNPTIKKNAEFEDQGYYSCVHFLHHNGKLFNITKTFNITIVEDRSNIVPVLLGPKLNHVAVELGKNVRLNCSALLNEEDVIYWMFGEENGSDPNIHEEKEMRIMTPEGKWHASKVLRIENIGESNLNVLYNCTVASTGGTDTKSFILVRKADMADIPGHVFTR

[4] = target: T2, human IL-18Rα ECD Fc fusion …; test: multipoint direct binding ELISA (drawn table, column EC50 (nM)); the cell equals that of row A3
[5] = target: T2, human IL-18Rα ECD Fc fusion …; test: competitive binding ELISA with soluble receptor (drawn table, column IC50 (nM)); the cell equals that of row A3
[6] = target: T2, human IL-18Rα ECD Fc fusion …; test: direct binding ELISA on immobilised human IL-18Rα (target after legend paragraph 36 and the table of panel C), OD 450 against concentration; panel title and axes say IgG, the key and legend say Fab
[7] = target: T2, human IL-18Rα ECD Fc fusion …; test: competitive ELISA with a dilution series of soluble receptor; the axis is printed 'Soluble hIL18Rβ concentration (nM)', but legend paragraph 36 and the table of panel C give IL-18Rα for this trace; the competitor is the immobilised receptor; y axis printed 'Inhibition (%)'
[8] = target: T3, human IL-18Rβ ECD Fc fusion (118-AP-100, R&D Systems) (human, UniProt O95256 20-356); test: SPR (Table 5 title), Fab on human receptor
T3 construct: Bought protein; also called hIL-18Rβ; recombinant human IL-18Rb; not shown: Fc tag of the bought fusion protein, not described
T3 sequence: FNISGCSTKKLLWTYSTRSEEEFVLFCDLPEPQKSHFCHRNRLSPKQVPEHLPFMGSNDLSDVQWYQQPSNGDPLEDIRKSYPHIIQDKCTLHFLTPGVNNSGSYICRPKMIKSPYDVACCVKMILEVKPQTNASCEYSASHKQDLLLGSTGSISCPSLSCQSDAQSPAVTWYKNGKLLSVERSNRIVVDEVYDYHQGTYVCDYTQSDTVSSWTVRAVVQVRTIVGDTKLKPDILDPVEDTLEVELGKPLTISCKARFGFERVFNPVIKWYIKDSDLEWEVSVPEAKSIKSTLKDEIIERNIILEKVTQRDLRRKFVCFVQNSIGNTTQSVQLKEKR

mouse IL-18Rβ = target: T4, mouse IL-18Rβ (mouse, UniProt Q9Z2B1 20-356, limits assumed); test: SPR (Table 5 title), Fab on mouse receptor
T4 construct: also called Mouse receptor; mouse ortholog
T4 sequence (looked up): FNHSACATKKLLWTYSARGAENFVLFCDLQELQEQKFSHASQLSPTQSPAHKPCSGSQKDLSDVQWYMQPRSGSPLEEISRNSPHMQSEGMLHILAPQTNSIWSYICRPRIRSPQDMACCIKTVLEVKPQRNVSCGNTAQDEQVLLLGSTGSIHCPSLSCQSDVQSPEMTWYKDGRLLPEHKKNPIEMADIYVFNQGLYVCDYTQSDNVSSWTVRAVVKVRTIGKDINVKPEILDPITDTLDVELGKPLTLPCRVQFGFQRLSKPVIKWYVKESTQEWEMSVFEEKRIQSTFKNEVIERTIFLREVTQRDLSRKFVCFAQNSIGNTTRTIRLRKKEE

[9] = target: T3, human IL-18Rβ ECD Fc fusion …; test: multipoint direct binding ELISA (drawn table, column EC50 (nM))
[10] = target: T3, human IL-18Rβ ECD Fc fusion …; test: competitive binding ELISA with soluble receptor (drawn table, column IC50 (nM))
[11] = target: T3, human IL-18Rβ ECD Fc fusion …; test: biolayer interferometry (BLI) after legend paragraph 36; drawn table, head KD (nM), Human receptor
[12] = target: T3, human IL-18Rβ ECD Fc fusion …; test: biolayer interferometry (BLI) after legend paragraph 36; drawn table, head kd (10^-4 s^-1), Human receptor
[13] = target: T3, human IL-18Rβ ECD Fc fusion …; test: biolayer interferometry (BLI) after legend paragraph 36; drawn table, head ka (10^4 M^-1 s^-1), Human receptor
[14] = target: T3, human IL-18Rβ ECD Fc fusion …; test: direct binding ELISA on immobilised human IL-18Rβ, OD 450 against concentration; panel title and axes say IgG, the key and legend paragraph 36 say Fab
[15] = target: T3, human IL-18Rβ ECD Fc fusion …; test: competitive ELISA: signal on immobilised receptor after incubation with a two-fold dilution series of soluble hIL-18Rβ; the concentration axis is the soluble receptor; y axis printed 'Inhibition (%)'

Binder | Kd [8] [nM] | koff [8] [s⁻¹] | kon [8] [M⁻¹ s⁻¹] | Kd (mouse IL-18Rβ) [nM] | koff (mouse IL-18Rβ) [s⁻¹] | kon (mouse IL-18Rβ) [M⁻¹ s⁻¹] | EC50 [9] [nM] | IC50 [10] [nM] | Kd [11] [nM] | koff [12] [s⁻¹] | kon [13] [M⁻¹ s⁻¹] | EC50 (read off the curve) [14] [nM] | IC50 (read off the curve) [15] [nM] | other results
B1 | – | – | – | – | – | – | – | – | – | – | – | – | – | Kd (Rhesus IL-18Rβ [1]): 3.9 nM; koff (Rhesus IL-18Rβ [1]): 0.00015 s⁻¹; kon (Rhesus IL-18Rβ [1]): 38000 M⁻¹ s⁻¹; EC50 (Rhesus IL-18Rβ [2]): 11.5 nM
B2 | – | – | – | – | – | – | – | – | – | – | – | – | – | Kd [3]: 1.9 nM; koff [3]: 0.0002 s⁻¹; kon [3]: 110000 M⁻¹ s⁻¹; EC50 [4]: 86 nM; IC50 [5]: 105 nM; EC50 (read off the curve) [6]: ~0.8 nM; IC50 (read off the curve) [7]: ~20 nM
B3 | 6.2 | 0.00127 | 210000 | 5.2 | 0.00062 | 120000 | 16 | 82 | 6.1 | 0.0013 | 210000 | ~0.3 | 1 to 2 | –
B4 | – | – | – | – | – | – | 33 | 74 | 133 | 0.0013 | 10000 | ~0.5 | ~9 | –
B5 | 1.8 | 0.00058 | 320000 | 12.9 | 0.0012 | 93000 | 16 | 19 | 6.4 | 0.0011 | 170000 | ~0.4 | ~2 | –
